T1: MBP-GLK2 fusion protein (Golden2-like transcription factor GLK2, full length) (Arabidopsis thaliana, UniProt Q9FFH0 1-386)
T1 sequence (looked up): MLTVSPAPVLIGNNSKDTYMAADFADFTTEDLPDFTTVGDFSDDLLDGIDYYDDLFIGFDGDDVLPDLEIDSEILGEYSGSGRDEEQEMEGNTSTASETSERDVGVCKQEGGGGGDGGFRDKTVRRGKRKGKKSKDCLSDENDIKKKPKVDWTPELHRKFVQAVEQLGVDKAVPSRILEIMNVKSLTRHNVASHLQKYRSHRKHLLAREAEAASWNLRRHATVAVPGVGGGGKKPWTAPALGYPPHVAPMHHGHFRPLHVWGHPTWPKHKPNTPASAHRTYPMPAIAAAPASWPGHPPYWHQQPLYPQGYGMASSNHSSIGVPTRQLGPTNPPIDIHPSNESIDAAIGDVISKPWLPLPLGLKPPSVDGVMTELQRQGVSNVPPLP

T2: MBP-GLK1 fusion protein (Golden2-like transcription factor GLK1, full length) (Arabidopsis thaliana, UniProt Q9SIV3 1-420)
T2 sequence (looked up): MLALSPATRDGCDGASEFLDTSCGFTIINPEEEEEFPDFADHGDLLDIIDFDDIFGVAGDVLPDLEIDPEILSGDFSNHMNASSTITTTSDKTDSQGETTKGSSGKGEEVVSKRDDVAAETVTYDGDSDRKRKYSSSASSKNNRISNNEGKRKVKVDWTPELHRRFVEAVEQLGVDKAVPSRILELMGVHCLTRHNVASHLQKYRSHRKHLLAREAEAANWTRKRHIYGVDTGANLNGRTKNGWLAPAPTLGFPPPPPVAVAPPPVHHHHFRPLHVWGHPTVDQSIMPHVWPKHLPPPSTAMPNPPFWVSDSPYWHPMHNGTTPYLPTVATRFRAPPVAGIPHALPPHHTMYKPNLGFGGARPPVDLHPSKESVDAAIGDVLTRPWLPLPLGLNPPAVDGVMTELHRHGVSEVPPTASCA


How the values were obtained:
[1] = molecular target: T1, MBP-GLK2 fusion protein (Golden2-like …); assay: pull-down
[2] = molecular target: T2, MBP-GLK1 fusion protein (Golden2-like …); assay: pull-down

| binding result [1] | binding result [2] | Binder |
| --- | --- | --- |
| binds | binds | GST-GBF2 fusion protein (G-box Binding Factor 2, full length) (natural protein, Arabidopsis thaliana, UniProt P42775 1-360, looked up) MGSNEEGNPTNNSDKPSQAAAPEQSNVHVYHHDWAAMQAYYGPRVGIPQYYNSNLAPGHAPPPYMWASPSPMMAPYGAPYPPFCPPGGVYAHPGVQMGSQPQGPVSQSASGVTTPLTIDAPANSAGNSDHGFMKKLKEFDGLAMSISNNKVGSAEHSSSEHRSSQSSENDGSSNGSDGNTTGGEQSRRKRRQQRSPSTGERPSSQNSLPLRGENEKPDVTMGTPVMPTAMSFQNSAGMNGVPQPWNEKEVKREKRKQSNRESARRSRLRKQAETEQLSVKVDALVAENMSLRSKLGQLNNESEKLRLENEAILDQLKAQATGKTENLISRVDKNNSVSGSKTVQHQLLNASPITDPVAAS |
| binds | binds | GST-GBF1 fusion protein (G-box Binding Factor 1, full length) (natural protein, Arabidopsis thaliana, UniProt P42774 1-315, looked up) MGTSEDKMPFKTTKPTSSAQEVPPTPYPDWQNSMQAYYGGGGTPNPFFPSPVGSPSPHPYMWGAQHHMMPPYGTPVPYPAMYPPGAVYAHPSMPMPPNSGPTNKEPAKDQASGKKSKGNSKKKAEGGDKALSGSGNDGASHSDESVTAGSSDENDENANQQEQGSIRKPSFGQMLADASSQSTTGEIQGSVPMKPVAPGTNLNIGMDLWSSQAGVPVKDERELKRQKRKQSNRESARRSRLRKQAECEQLQQRVESLSNENQSLRDELQRLSSECDKLKSENNSIQDELQRVLGAEAVANLEQNAAGSKDGEGTN |
| binds | binds | GST-GBF3 fusion protein (G-box Binding Factor 3, full length) (natural protein, Arabidopsis thaliana, UniProt P42776 1-382, looked up) MGNSSEEPKPPTKSDKPSSPPVDQTNVHVYPDWAAMQAYYGPRVAMPPYYNSAMAASGHPPPPYMWNPQHMMSPYGAPYAAVYPHGGGVYAHPGIPMGSLPQGQKDPPLTTPGTLLSIDTPTKSTGNTDNGLMKKLKEFDGLAMSLGNGNPENGADEHKRSRNSSETDGSTDGSDGNTTGADEPKLKRSREGTPTKDGKQLVQASSFHSVSPSSGDTGVKLIQGSGAILSPGVSANSNPFMSQSLAMVPPETWLQNERELKRERRKQSNRESARRSRLRKQAETEELARKVEALTAENMALRSELNQLNEKSDKLRGANATLLDKLKCSEPEKRVPANMLSRVKNSGAGDKNKNQGDNDSNSTSKLHQLLDTKPRAKAVAAG |

From doi:10.1101/2022.09.09.507346 (bioRxiv, 2022)
